Test results from patent US8624002B2, “Prostaglandin E2 binding proteins and uses thereof” (AbbVie, Inc., priority 2008, dated 2014).
Positions count from the first letter of the chain named.

B1: 2B5-8.0: recombinant anti-PGE2 antibody from solved 2B5 sequence; VH SEQ ID NO 42, VL SEQ ID NO 43 (antibody, V domains shown)
VH: QVQLQQSGPELVRPGSSVKISCKASGYTFTKYWLGWVKQRPGHGLEWIGDIYPGYDYTHYNEKFKDKATLTVDTSSSTAYMQLSSLTSEDSAIYYCARSDGSSTYWGQGTLVTVSA
VL: DVLMTQTPLSLPVSLGDQASISCTSSQNIVHSNGNTYLEWYLQRPGQSPKLLIYKVSNRFSGVPDRFSGSGSGTVFTLKISRVEAEDLGVYYCFQVSHVPYTFGGGTKLEIKR
B2: Hu2B5.4: humanized 2B5-8.0; VH SEQ ID NO 66, VL SEQ ID NO 67 (antibody, V domains shown)
VH: EVQLVQSGAEVKKPGASVKVSCKASGYTFTKYWLGWVRQAPGQGLEWIGDIYPGYDYTHYNEKFKDRATLTVDTSTSTAYMELSSLRSDDTAVYYCARSDGSSTYWGQGTLVTVSS
VL: B1 VL with S14T, L15P, D17E, Q18P, R44K, K50Q, V75D, L88V, L109V

Columns and labels:
[1] = system: carrageenan-induced paw edema; test: Carrageenan-induced footpad edema model; type: in vivo, C57.BL/6 mice
Protocol: Carrageenan-Induced Footpad Edema is an acute rodent model of innate immune function. The in vivo efficacy of mouse anti-PGE2 antibody 2B5-8.0 is assessed in a carragenan-induced paw edema model. The induction of paw inflammation with carrageenan is performed similarly as previously described (Joseph P. Portanova, et al. J. Exp. Med. 184: 883-891 (1996)). Intradermal (ID) injection of an inflammatory agent causes a rapid influx of neutrophils and fluid edema which peaks at approximately 4 hours, followed by an influx of macrophages and monocytes which peaks at approximately 48 hours. C57.BL/6 mice (8-10-week-old, Jackson Laboratories, Bar Harbor, Me.) were injected ID in the rear footpad with 30 μL of either PBS (left) or λ-carrageenen (Sigma Aldrich, St. Louis, Mo.) in PBS (right) at a concentration of 5.0 mg/mL (150 μg/mouse). Rear footpad thickness was measured by Dyer spring caliper model #310-119 at baseline (time=0), and 4 hours post carrageenan challenge. Significant difference for paw thickness was determined by comparing mean paw swelling for each treatment group to vehicle in a Student's two-tailed t-test. Mice were given a dose titration of an anti-PGE2 antibody (2B5-8.0) intraperitonially (IP) 18 hours prior to carrageenan challenge, or Indomethacin, PO 2 hours prior to challenge. The endpoint measured was the difference in paw swelling (edema) between right and left paws 4 hours after treatment.

[2] = Biotin-PGE2 ELISA (PGE2-biotinamide binding to captured IgG)
Protocol: Enzyme linked immunosorbent assays to screen for antibodies that bind prostaglandin E2 were performed according to at least one of the two following methods.
ELISA plates (Costar 3369, Corning, N.Y.) were coated with 50 μl of anti-host Fc IgG (Sigma, St. Louis, Mo.) at 2 μg/ml in PBS (Invitrogen Carlsbad, Calif.). Following an overnight incubation at 4° C., washed with PBS and the plate was blocked with 200 μl Superblock (Pierce #37535, Rockford, Ill.). The IgG containing samples were diluted to 1 μg/ml in Assay Buffer (10% Superblock in PBS containing 0.05% Surfactamps (Pierce #37535, Rockford, Ill.) and 50 μl/well added to each well and incubated for 1 hour at room temperature. Plates were washed four times with Tween-Tris Buffered Solution (TTBS). […] The titration curve samples were added to each IgG sample at 50 μl/well and incubated for 1 hour at room temperature. The plates were washed as previously described and 50 μl of 1:5000 dilution of streptavidin polyhrp40 (Fitzgerald Industries, Concord, Mass.) in Assay Buffer was added to each well and incubated for 45 minutes at room temperature. A final wash step was performed and the plates were developed using a single step TMB system (Sigma #T8665, St. Louis, Mo.) and 100 μl/well 2N H2SO4. Plates were read at 450 nm on a Molecular Devices Spectramax plate reader (Sunnyvale, Calif.). EC50 was determined using GraphPad Prism 5 (GraphPad Software, La Jolla, Calif.).

[3] = Pharmacokinetics of hu2B5.7 and hu2B5.4 in Sprague-Dawley rats; type: in vivo; details: male Sprague-Dawley rats, IV 4 mg/kg
Protocol: Pharmacokinetic parameters were calculated by non-compartmental analysis using WinNonlin.
MSD streptavidin plates (Meso Scale Discovery) were washed with phosphate buffered saline containing 0.05% Tween-20 (diluted from 10×PBS, Abbott Bioresearch Center, Media Room, Worcester, Mass. and Tween-20, Sigma, St. Louis, Mo.). Plates were blocked with 250 μL/well blocking solution (MSD Block, Meso Scale Discovery, diluted to 3% final concentration in PBS) for 1 hour, covered, with shaking (600 rpm) at room temperature. After washing, 70 μL of biotinylated PGE2 (Prostoglandin E2-biotinamide, Cayman Chemical, Ann Arbor, Mich., cat# 10006987, lot# 190831-191028; 0.01 ug/mL in assay buffer) was added to each well. The plates were covered and incubated with shaking (600 rpm) for 1 hour at room temperature.
Prior to analysis, rat serum samples were thawed on ice, mixed gently, and centrifuged at 14,000 rpm for 3 minutes at 4° C. in an eppendorf centrifuge. Standard curve and control samples were prepared in rat serum. Tecan Evo automated liquid handling station was used to dilute standard curve, high, medium, and low controls, and serum samples in assay buffer, keeping 1% final serum concentration constant. MSD plates were washed again and study samples, standard curve samples and blanks, as well as high, medium, and low controls were added (70 μL/well). The plates were covered, and incubated for 1 hour with shaking (600 rpm) at room temperature.
After incubation, the MSD plates were washed, and 70 μL sulfo-tagged goat anti-human IgG (Meso Scale Discovery; diluted to 1 ug/mL in assay buffer) was added to each well. The MSD plates were covered, and incubated with shaking (600 rpm) for 1 hour at room temperature, then the plates were washed and developed with 2× Read Buffer (Meso Scale Discovery). Chemilumeniscence was measured within ten minutes on the MSD Sector Imager 6000.
Standard curves were analyzed using four-parameter logistic fit and sample concentrations were calculated by XLfit4 software version 2.2.1 Build 16, ([…].). Pharmacokinetic parameters were calculated for each animal using Winonlin software version 5.0.1 (Pharsight Corporation, Mountain View, Calif.) by noncompartmental analysis.
Surgically altered jugular vein cannulated, JVC) male Sprague-Dawley Rats (approximately seven weeks old, weighing 240-390 grams) were purchased from Charles River Laboratories (Wilmington, Mass.). The animals were housed in rooms maintained at constant temperature and humidity under a 12 hour light/dark cycle, fed with normal rodent chow and were allowed food and water ad libitum. Hydration and clinical conditions of the animals were monitored daily.
0.2 mL blood samples were collected from the rats at various timepoints, allowed to clot for 30 minutes at room temperature, centrifuged for 3 minutes at 13,200 rpm, the serum transferred to eppendorf tubes and stored frozen at −80° C.

| Molecule | Δ Paw Swelling (mm) ([1]; 10 mg/kg, i.p., 18 hours prior to carrageenan, 4 hours post challenge) | % Inhibition ([1]; 10 mg/kg, i.p., paw swelling 4 hours post challenge) | maximal inhibition of paw swelling ([1]; at 10 mg/kg) | EC50 [2] | ability to bind PGE2 in ELISA [2] | AUC0-∞ [3] | CL [3] | MRT [3] | T½ [3] | Vss [3] | Vz [3] |
| --- | --- | --- | --- | --- | --- | --- | --- | --- | --- | --- | --- |
| B1 | 0.529 ± 0.04 mm | 38 ± 4.6% | 40-50% | 1.03 nM | potently bound to PGE2 |  |  |  |  |  |  |
| B2 |  |  |  |  |  | 11800 ± 2000 µg·h/mL | 8.4 ± 1.7 mL/day/kg | 18.0 ± 6.0 days | 12.4 days | 0.145 ± 0.0318 L/kg | 0.143 ± 0.0402 L/kg |
